Among the data in patent CN106699891A (BEIJING MABWORKS BIOTECH CO LTD, dated 2017) are Kd, koff and kon values, retold here.

Usually Kd stands for a measure of binding affinity in units of concentration. A high value points to weaker binding. A word on the koff: it is a measure of how fast the partners let go of each other. A higher koff goes with a short-lived complex. A word on the kon: it is a measure of how fast the partners come together.

The target of the assay is T1, PD-L1-Fc (UniProt Q9NZQ7 19-238, limits assumed).
T1 construct: extracellular domain; not shown: Fc fragment of human IgG
T1 sequence (Q9NZQ7 19-238 limits assumed): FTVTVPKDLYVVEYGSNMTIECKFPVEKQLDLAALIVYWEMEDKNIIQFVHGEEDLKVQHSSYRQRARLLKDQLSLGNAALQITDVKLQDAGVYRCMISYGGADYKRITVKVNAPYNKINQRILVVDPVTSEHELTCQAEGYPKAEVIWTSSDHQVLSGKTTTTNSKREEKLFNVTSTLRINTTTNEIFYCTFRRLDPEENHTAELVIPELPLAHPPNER
The experiment in a line: SPR (Biacore), antibody captured by anti-human Fab on CM5 chip, PD-L1-Fc as analyte, 1:1 binding fit. A general note: In SPR one partner is held on a chip, and binding of the other changes the refractive index at the surface.

B1: Mil85-6抗体 (antibody, V domains shown)
VH: EVQLVESGGGLVQPGGSLRLSCAASGFTFADSWIHWVRQAPGKGLEWVAWISPFGGSNYYADSVKGRFTISADTSKNTAYLQMNSLRAEDTAVYYCARRHWPGGFDYWGQGTLVTVSS
VL: DIQMTQSPSSLSASVGDRVTITCRASQSIGTALNWYQQKPGKAPKLLIYTASSLQSGVPSRFSGSGSGTDFTLTISSLQPEDFATYYCQQDNYTPMTFGQGTKVEIK
notes: also called Mil85-6-5C6; 全抗体
For the molecule B1, the Kd came to 0.429 nM, the dissociation rate constant (koff) came out at 0.000195 s⁻¹ and the on-rate (kon) was found to be 457000 M⁻¹ s⁻¹.
